The record followed here is PMC11117730, “A Novel Bifunctional Fusion Protein (Anti-IL-17A-sST2) Protects against Acute Liver Failure, Modulating the TLR4/MyD88 Pathway and NLRP3 Inflammasome Activation” (Biomedicines, 2024).

For the assay, the target named is T1, sST2-Fc (mouse, UniProt P14719 27-332).
T1 construct: mouse ST2L (IL-33 receptor), amino acids 27-332, cloned into a pTT5 vector that contains the human IgG4 Fc domain; also called soluble ST2 Fc fusion
T1 sequence (looked up): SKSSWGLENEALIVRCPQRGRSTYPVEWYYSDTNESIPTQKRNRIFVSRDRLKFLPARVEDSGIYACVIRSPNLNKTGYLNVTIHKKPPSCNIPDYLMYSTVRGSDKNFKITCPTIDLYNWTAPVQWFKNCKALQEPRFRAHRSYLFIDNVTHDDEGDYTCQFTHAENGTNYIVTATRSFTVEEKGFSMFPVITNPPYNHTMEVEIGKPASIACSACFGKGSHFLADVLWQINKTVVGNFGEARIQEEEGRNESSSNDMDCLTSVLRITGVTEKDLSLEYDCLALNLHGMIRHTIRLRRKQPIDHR
Nature of the assay: SPR; Biacore T200; antigen (mouse IL-33) immobilised on CM5 by amine coupling; proteins flowed in a 2-fold dilution series for 120 s, dissociation 480 s. To be noted: both partners purified. (In general: In SPR one partner is held on a chip, and binding of the other changes the refractive index at the surface.)

B1: mouse IL-33 (ligand)
chain: SIQGTSLLTQSPASLSTYNDQSVSFVLENGCYVINVDDSGKDQEQDQVLLRYYESPCPASQSGDGVDGKKLMVNMSPIKDTDIWLHANDKDYSVELQRGDVSPPEQAFFVLHKKSSDFVSFECKNLPGTYIGVKDNQLALVEEKDESCNNIMFKLSKI
The Kd is a measure of binding affinity in units of concentration. Read a high Kd as lower affinity. Take B1: the Kd came out at 0.174 nM.
